# Residue numbers refer to the chain shown, from its start. Numbers in names are those of the source.
# B1: Rluc-tagged β-arrestin 1 wild type (natural protein, UniProt P17870 1-418, looked up)
# chain: MGDKGTRVFKKASPNGKLTVYLGKRDFVDHIDLVEPVDGVVLVDPEYLKERRVYVTLTCAFRYGREDLDVLGLTFRKDLFVANVQSFPPAPEDKKPLTRLQERLIKKLGEHAYPFTFEIPPNLPCSVTLQPGPEDTGKACGVDYEVKAFCAENLEEKIHKRNSVRLVIRKVQYAPERPGPQPTAETTRQFLMSDKPLHLEASLDKEIYYHGEPISVNVHVTNNTNKTVKKIKISVRQYADICLFNTAQYKCPVAMEEADDTVAPSSTFCKVYTLTPFLANNREKRGLALDGKLKHEDTNLASSTLLREGANREILGIIVSYKVKVKLVVSRGGLLGDLASSDVAVELPFTLMHPKPKEEPPHREVPEHETPVDTNLIELDTNDDDIVFEDFARQRLKGMKDDKEEEEDGTGSPRLNDR
# B2: Rluc-tagged phosphorylation-independent β-arrestin 1 mutant R169E (natural protein, UniProt P17870 1-418, looked up)
# chain: B1 chain with R169E
# B3: Rluc-tagged β-arrestin 2 wild type (natural protein, UniProt P32120 1-420, looked up)
# chain: MGEKPGTRVFKKSSPNCKLTVYLGKRDFVDHLDKVDPVDGVVLVDPDYLKDRKVFVTLTCAFRYGREDLDVLGLSFRKDLFIANYQAFPPTPNPPRPPTRLQERLLRKLGQHAHPFFFTIPQNLPCSVTLQPGPEDTGKACGVDFEIRAFCAKSLEEKSHKRNSVRLVIRKVQFAPEKPGPQPSAETTRHFLMSDRSLHLEASLDKELYYHGEPLNVNVHVTNNSTKTVKKIKVSVRQYADICLFSTAQYKCPVAQVEQDDQVSPSSTFCKVYTITPLLSNNREKRGLALDGKLKHEDTNLASSTIVKEGANKEVLGILVSYRVKVKLVVSRGGDVSVELPFVLMHPKPHDHIALPRPQSAATHPPTLLPSAVPETDAPVDTNLIEFETNYATDDDIVFEDFARLRLKGLKDEDYDDQFC
# B4: Rluc-tagged phosphorylation-independent β-arrestin 2 mutant R170E (natural protein, UniProt P32120 1-420, looked up)
# chain: B3 chain with R170E
# Target: T1, EGFP-tagged human orexin receptor 1 (human, UniProt O43613 1-425)
# T1 sequence (looked up): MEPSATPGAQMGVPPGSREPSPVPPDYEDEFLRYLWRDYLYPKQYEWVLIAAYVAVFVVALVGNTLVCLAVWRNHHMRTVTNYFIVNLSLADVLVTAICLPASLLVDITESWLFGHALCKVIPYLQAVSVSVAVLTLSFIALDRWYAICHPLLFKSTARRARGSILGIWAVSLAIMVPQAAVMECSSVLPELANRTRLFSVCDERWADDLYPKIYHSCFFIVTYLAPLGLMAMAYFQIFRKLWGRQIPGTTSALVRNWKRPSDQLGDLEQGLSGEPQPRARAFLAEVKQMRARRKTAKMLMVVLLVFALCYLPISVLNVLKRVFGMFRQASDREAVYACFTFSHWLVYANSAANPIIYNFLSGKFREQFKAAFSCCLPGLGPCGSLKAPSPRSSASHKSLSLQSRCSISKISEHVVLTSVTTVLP
# Assay: FRET or BRET
row,Binder,EC50 of the agonist OxA for receptor-β-arrestin BRET
1,B1,777 nM
2,B2,412 nM
3,B3,719 nM
4,B4,401 nM

# Target: T2, EGFP-tagged human orexin receptor 2 (human, UniProt O43614 1-444)
# T2 sequence (looked up): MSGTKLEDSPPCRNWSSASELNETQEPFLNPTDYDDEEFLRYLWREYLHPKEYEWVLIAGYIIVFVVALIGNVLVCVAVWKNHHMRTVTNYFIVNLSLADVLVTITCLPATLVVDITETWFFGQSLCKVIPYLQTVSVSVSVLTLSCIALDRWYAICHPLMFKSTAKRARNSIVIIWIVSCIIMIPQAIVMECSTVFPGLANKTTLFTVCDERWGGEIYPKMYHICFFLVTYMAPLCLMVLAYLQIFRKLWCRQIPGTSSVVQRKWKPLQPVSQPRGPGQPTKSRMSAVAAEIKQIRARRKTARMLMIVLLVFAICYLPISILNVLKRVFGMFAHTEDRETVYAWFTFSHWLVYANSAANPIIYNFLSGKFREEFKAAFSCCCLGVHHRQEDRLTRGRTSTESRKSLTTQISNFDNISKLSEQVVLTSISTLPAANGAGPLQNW
# Assay: FRET or BRET
row,Binder,EC50 of the agonist OxA for receptor-β-arrestin BRET
1,B1,376 nM
2,B2,139 nM
3,B3,215 nM
4,B4,162 nM

# Target: T1, EGFP-tagged human orexin receptor 1
# Assay: FRET or BRET
# Remark: another data set of the same source
row,Binder,EC50 of the agonist OxB for receptor-β-arrestin BRET
1,B2,3770 nM
2,B4,3790 nM

# Target: T2, EGFP-tagged human orexin receptor 2
# Assay: FRET or BRET
# Remark: another data set of the same source
row,Binder,EC50 of the agonist OxB for receptor-β-arrestin BRET
1,B1,334 nM
2,B2,228 nM
3,B3,384 nM
4,B4,278 nM
